Molecular target: RPA heterotrimer (RPA1, RPA2, RPA3) (UniProt P27694;P15927;P35244 1-616;1-270;1-121)
Experiment: EMSA; low PAR (lanes 3-4, from 8 ng) mixed with DNA before RPA; free DNA decreased; PBS, 20 ul, 20-23 C (room temperature), 30 min; 1% agarose gel in 0.5x TBE at 4 C; pH not stated
Conditions: protein: recombinant; copies: 1;1;1; label: 5' Cy5.5; single strand

RPA heterotrimer (RPA1, RPA2, RPA3), sequence (P27694 whole entry, chain 1 of 3): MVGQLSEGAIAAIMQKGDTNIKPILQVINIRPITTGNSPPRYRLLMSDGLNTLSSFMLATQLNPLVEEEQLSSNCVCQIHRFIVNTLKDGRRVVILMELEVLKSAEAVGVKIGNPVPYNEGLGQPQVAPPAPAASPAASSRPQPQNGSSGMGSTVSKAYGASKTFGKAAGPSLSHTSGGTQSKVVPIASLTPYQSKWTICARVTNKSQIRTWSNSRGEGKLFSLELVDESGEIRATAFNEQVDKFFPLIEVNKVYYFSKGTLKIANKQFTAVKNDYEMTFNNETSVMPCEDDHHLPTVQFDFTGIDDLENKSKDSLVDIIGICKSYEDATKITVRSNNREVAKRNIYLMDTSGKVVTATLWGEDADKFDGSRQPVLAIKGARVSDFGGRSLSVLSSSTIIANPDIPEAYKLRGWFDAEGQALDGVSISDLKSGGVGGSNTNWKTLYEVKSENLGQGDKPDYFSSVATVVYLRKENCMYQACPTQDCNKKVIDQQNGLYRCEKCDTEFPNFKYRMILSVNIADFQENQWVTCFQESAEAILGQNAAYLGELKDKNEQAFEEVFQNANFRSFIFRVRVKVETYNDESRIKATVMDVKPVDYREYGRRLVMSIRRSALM
RPA heterotrimer (RPA1, RPA2, RPA3), sequence (P15927 whole entry, chain 2 of 3): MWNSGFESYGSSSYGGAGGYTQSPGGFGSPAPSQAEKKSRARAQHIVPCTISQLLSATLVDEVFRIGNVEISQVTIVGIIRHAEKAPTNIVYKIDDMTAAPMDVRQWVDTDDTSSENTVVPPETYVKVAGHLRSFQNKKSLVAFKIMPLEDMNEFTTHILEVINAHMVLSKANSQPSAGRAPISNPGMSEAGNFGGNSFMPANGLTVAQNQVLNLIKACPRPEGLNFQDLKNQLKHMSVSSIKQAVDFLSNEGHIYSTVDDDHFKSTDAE
RPA heterotrimer (RPA1, RPA2, RPA3), sequence (P35244 whole entry, chain 3 of 3): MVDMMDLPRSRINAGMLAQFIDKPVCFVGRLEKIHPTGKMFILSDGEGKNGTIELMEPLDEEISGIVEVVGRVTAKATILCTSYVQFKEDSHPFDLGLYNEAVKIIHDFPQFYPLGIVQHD

Question: Does TTTTTTTTTTTTTTTTTTTTTTTTTTTTTTTTTTTTTTTTTTTTTTTTTT (ssDNA) [Cy5.5-oligodT 50-mer] bind?
Answer: binds

Source: paper PMC4081103, “PARG is dispensable for recovery from transient replicative stress but required to prevent detrimental accumulation of poly(ADP-ribose) upon prolonged replicative stress”
